Usually IC50 stands for the concentration at which inhibition is half-maximal.

The record followed here is PMC6426329 (Journal of immunology (Baltimore, Md. : 1950), 2018).

Entries after “also recorded” stand apart in the source; their conditions may differ.

The first assay addresses DRB4 protein (Homo sapiens, UniProt P01903+P13762, G164S). Nature of the assay: Peptide binding competition assay. The conditions noted are these: in vitro competition assay.
For “PPI 12–23: truncated version of the PPI 9–28 peptide (ALLALWGPDPAA)”, the “Binding to DRB4 (in words)” value is on record as “able to bind; also recorded: detectable binding”.

A further assay addresses Recombinant DRB4 protein (DRA1/B4*01:01) (human) (UniProt P01903). Nature of the assay: peptide binding competition assay.
Settings: not given
Turning to GAD65 265–284 peptide, the IC50 was determined as 10 µM. Turning to DVMNILLQYVVKSFDRSTKV [GAD65 113–132 peptide], the IC50 came out at 1.4 µM.

For the molecule PGGAISNMYAMMIARFKMFP [GAD65 241–260 peptide], the concentration for half-maximal inhibition (IC50) was found to be 0.6 µM.

With LRTLEDNEERMSRLSKVAPV [GAD65 513–532 peptide], the IC50 came out at 5.9 µM.

VAPVIKARMMEYGTTMVSYQ [GAD65 529–548 peptide]: the 50% inhibitory concentration (IC50) was 2.8 µM.

Regarding ATHQDIDFLIEEIERLGQDL [GAD65 566–585 peptide], the IC50 was 12 µM. As for NTNMFTYEIAPVFVLLEYVT [GAD65 201–220 peptide], the IC50 amounted to 1.2 µM. Regarding IAPVFVLLEYVTLKKMREII [GAD65 209–228 peptide], the concentration for half-maximal inhibition (IC50) was 21 µM. As for SDLERRILEAKQKGFVPFLV [GAD65 313–332 peptide], the IC50 was determined as 22 µM. On to HVDVFKLWLMWRAKGTTGFE [GAD65 449–468 peptide], for which the 50% inhibitory concentration (IC50) is 32 µM. The same measure, in the same setting: next, ICKKYKIWMHVDAAWGGGLL [GAD65 353–372 peptide]: 0.9 µM; KVNFFRMVISNPAATHQDID [GAD65 553–572 peptide]: 7.8 µM; DERGKMIPSDLERRILEAKQ [GAD65 305–324 peptide]: 29 µM.
